Source: patent US20210032365A1 (Chugai, published 2021)

Experiments:
human C1s [1] = target: T1, human C1s (human, UniProt P09871 16-688); test: SPR; KD at pH 5.8 (3 uM Ca) over KD at pH 7.4 (1.2 mM Ca)
T1 construct: Analyte in the Biacore assays; also called hC1s; serum-derived human C1s (CompTech)
T1 sequence: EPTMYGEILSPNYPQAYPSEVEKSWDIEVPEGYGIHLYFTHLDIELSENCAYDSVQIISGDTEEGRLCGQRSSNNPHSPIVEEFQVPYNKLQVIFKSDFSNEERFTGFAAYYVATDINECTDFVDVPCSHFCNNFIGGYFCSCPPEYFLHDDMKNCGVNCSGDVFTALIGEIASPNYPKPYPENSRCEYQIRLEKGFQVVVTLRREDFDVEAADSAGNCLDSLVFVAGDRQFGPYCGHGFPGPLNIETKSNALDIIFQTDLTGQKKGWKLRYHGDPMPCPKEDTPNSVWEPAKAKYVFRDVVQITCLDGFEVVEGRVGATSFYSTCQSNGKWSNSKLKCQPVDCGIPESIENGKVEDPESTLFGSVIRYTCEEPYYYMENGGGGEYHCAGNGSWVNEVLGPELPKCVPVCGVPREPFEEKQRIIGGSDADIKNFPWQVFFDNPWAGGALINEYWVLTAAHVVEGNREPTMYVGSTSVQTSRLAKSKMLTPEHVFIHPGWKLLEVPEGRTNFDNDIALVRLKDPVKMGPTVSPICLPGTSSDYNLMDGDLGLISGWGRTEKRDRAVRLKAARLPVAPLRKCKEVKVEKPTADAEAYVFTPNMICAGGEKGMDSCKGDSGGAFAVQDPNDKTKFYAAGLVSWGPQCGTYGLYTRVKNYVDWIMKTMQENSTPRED
Description: (§1) All variants were transiently expressed and purified by the method described above. The binding affinity of each histidine-substituted variant at pH 7.4 and pH 5.8 was determined at 37 degrees C. using Biacore T200 instrument (GE Healthcare). Recombinant Protein A/G (Pierce) was immobilized onto all flow cells of a CM4 sensor chip using an amine coupling kit (GE Healthcare). Antibodies and analytes were prepared in 7(+) buffer (20 mM ACES, 150 mM NaCl, 1.2 mM CaCl2, 0.05% Tween 20, 0.005% NaN3, pH 7.4), 5(+) buffer (20 mM ACES, 150 mM NaCl, 1.2 mM CaCl2, 0.05% Tween 20, 0.005% NaN3, pH 5.8), or 5(−) buffer (20 mM ACES, 150 mM NaCl, 3 micro M CaCl2, 0.05% Tween 20, 0.005% NaN3, pH 5.8). Each antibody was captured onto the sensor surface by protein A/G. Antibody capture levels were aimed at 200 resonance unit (RU). Serum-derived human C1s (CompTech) or recombinant C1s prepared in EXAMPLE 1 was injected at 50 nM, followed by dissociation. The sensor surface was regenerated in each cycle with 10 mM Glycine-HCl, pH 1.5. […] The ratio of KD 5.8+ to KD 7.4+(“KD 5+/7+”) and that of KD 5.8− to KD 7.4+(“KD 5−/7+”) were calculated. When the KD 5+/7+ or KD 5−/7+ of a variant is larger than that of the parent antibody IPN009VH2-SG4GK/IPN009VK3-SK1, that variant is considered to be “pH”- or “pH and Ca”-dependent, respectively. When binding response in 5(+) buffer and/or in 5(−) buffer of a variant is much lower than that of IPN09VH2/IPN009VK3, that variant is also considered as “pH”- and/or “pH and Ca”-dependent. Therefore, such mutations are effective to generate “pH”- and/or “pH and Ca”-dependent antibody. To further enhance “pH” and/or “pH and Ca” dependency, a combination of histidine mutations was conducted. Antibodies with combinations of histidine mutations were evaluated using Biacore by the method described above.

human C1s [2] = target: T1, human C1s; test: SPR; KD at pH 5.8 (1.2 mM Ca) over KD at pH 7.4 (1.2 mM Ca)
Description: as §1

human C1s [3] = target: T1, human C1s; test: SPR (Biacore T200, 37C), Ab captured on protein A/G; pH 5.8, 3 uM Ca
Description: as §1

human C1s [4] = target: T1, human C1s; test: SPR (Biacore T200, 37C), Ab captured on protein A/G; pH 5.8, 1.2 mM Ca
Description: as §1

human C1s [5] = target: T1, human C1s; test: SPR (Biacore T200, 37C), Ab captured on protein A/G; pH 7.4, 1.2 mM Ca
Description: as §1

human C1s [6] = target: T1, human C1s; test: SPR (Biacore T200, 37C), Ab captured on protein A/G; pH 5.8, 1.2 mM Ca; pH 5.8, 1.2 mM Ca
human C1s [7] = target: T1, human C1s; test: SPR (Biacore T200, 37C), Ab captured on protein A/G; pH 7.4, 1.2 mM Ca; pH 7.4, 1.2 mM Ca
Description: All variants were transiently expressed and purified by the method described above. The binding affinity of each histidine-substituted variant at pH 7.4 and pH 5.8 was determined at 37 degrees C. using Biacore T200 instrument (GE Healthcare). Recombinant Protein A/G (Pierce) was immobilized onto all flow cells of a CM4 sensor chip using an amine coupling kit (GE Healthcare). Antibodies and analytes were prepared in 7(+) buffer (20 mM ACES, 150 mM NaCl, 1.2 mM CaCl2, 0.05% Tween 20, 0.005% NaN3, pH 7.4), 5(+) buffer (20 mM ACES, 150 mM NaCl, 1.2 mM CaCl2, 0.05% Tween 20, 0.005% NaN3, pH 5.8), or 5(−) buffer (20 mM ACES, 150 mM NaCl, 3 micro M CaCl2, 0.05% Tween 20, 0.005% NaN3, pH 5.8). Each antibody was captured onto the sensor surface by protein A/G. Antibody capture levels were aimed at 200 resonance unit (RU). Serum-derived human C1s (CompTech) or recombinant C1s prepared in EXAMPLE 1 was injected at 50 nM, followed by dissociation. The sensor surface was regenerated in each cycle with 10 mM Glycine-HCl, pH 1.5. […] The ratio of KD 5.8+ to KD 7.4+(“KD 5+/7+”) and that of KD 5.8− to KD 7.4+(“KD 5−/7+”) were calculated. […] Antibodies with combinations of histidine mutations were evaluated using Biacore by the method described above.

KD 5(-)/7(+) (human C1s [1]): 6.23 | KD 5(+)/7(+) (human C1s [2]): 9.9 | koff (human C1s [3]): 0.00504 s⁻¹ | kon (human C1s [3]): 485000 M⁻¹ s⁻¹ | koff (human C1s [4]): 0.0292 s⁻¹ | kon (human C1s [5]): 527000 M⁻¹ s⁻¹ | kon (human C1s [6]): 1.77e+06 M⁻¹ s⁻¹ | koff (human C1s [7]): 0.00088 s⁻¹
B1: C1_IPN92H0288-SG4GK/IPN93L0211-SK1 (antibody, human IgG4 S228P, kappa)
heavy: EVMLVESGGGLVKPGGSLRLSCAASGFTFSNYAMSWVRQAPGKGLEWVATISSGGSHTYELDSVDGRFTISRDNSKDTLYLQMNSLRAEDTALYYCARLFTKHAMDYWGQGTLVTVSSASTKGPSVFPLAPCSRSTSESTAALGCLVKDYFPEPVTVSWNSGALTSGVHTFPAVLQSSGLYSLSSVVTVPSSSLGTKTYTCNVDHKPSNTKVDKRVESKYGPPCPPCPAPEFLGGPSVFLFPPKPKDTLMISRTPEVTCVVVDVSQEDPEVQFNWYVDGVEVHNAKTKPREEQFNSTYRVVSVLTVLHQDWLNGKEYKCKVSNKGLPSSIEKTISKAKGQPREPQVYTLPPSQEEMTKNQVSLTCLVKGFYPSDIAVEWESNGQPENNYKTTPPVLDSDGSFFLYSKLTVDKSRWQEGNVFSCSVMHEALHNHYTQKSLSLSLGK
light: QIVLTQSPATLSLSPGERATLSCTASSEVSESYLHWYQQKPGKAPKLWIYSTSNLASGVPSRFSGSGSGTDYTLTISSLQPEDFATYYCHQYYRLHPITFGQGTKLEIKRTVAAPSVFIFPPSDEQLKSGTASVVCLLNNFYPREAKVQWKVDNALQSGNSQESVTEQDSKDSTYSLSSTLTLSKADYEKHKVYACEVTHQGLSSPVTKSFNRGEC
notes: also called IPN92H0288/IPN93L0211
